This is an account of results in patent US20260201069A1, “ANTIBODIES THAT SPECIFICALLY BIND MODIFIED OLIGONUCLEOTIDES” (Hoffmann-La Roche Inc., priority 2024, published 2026).

The test system of one data set is ASO 042. The data set can be described thus: SPR (BIAcore) binding kinetics and affinity. The note with it: analyte ASO 042, bivalent IgG format, 25° C. The procedure:
(§1) In more detail, LNA binding of the antibodies according to the current invention was characterized by surface plasmon resonance (SPR) using a BIAcore instrument with a HEPES-based running and dilution buffer at 25° C. About 100-200 resonance units (RU) of an anti-LNA antibody with an Fc-region of the human IgG1 subclass and the mutations P329G, L234A and L235A (according to Kabat EU index; human IgG Fc-PGLALA) or an anti-LNA Fab fragment with human CL and CH1 (kappa, IgG1 isotype), respectively, was captured on the surface of a Series S Sensor Chip CM3 derivatized by standard amine coupling with either a mouse anti-human IgG Fc-PGLALA antibody or a goat anti-human F(ab′2) antibody with final total surface densities of approximately 5000 RU. Different LNA-modified ASOs were passed over the derivatized SPR chip surface by injecting the respective solutions in a 1:3 dilution series up to a final concentration of 1000 nM. Association was monitored for 3 min and dissociation for 5 min at a flow rate of 30 μl/min each. Bulk refractive index differences were corrected by subtracting blank injections and by subtracting the response obtained from the reference flow cell without captured antibody. Curve fitting was performed using the 1:1 Langmuir binding model within the BIAcore evaluation software.
(§2) To assess the binding specificities and affinities of the LNA-binding antibodies according to the current invention, surface plasmon resonance was used as described, e.g., in WO 2020/141117 and WO 2022/175217.
(§3) To assess the specificities and affinities of LNA-binding antibodies, surface plasmon resonance was done as described in WO 2020/141117 and WO 2022/175217. ASO binding was investigated by surface plasmon resonance (SPR) using a BIAcore T200 instrument (Cytiva). As a running and dilution buffer, HEPES buffered saline (HBS) containing 0.05% PS20 was used, the temperature was set to 25° C. For capturing anti-LNA Fabs or complete anti-LNA antibodies to a Series S Sensor Chip CM3 (Cytiva), either a mouse anti-human IgG antibody (Roche Diagnostics GmbH) or a goat anti-human F(ab′2) antibody (Jackson ImmunoResearch) was immobilized using standard amine coupling chemistry with final total surface densities of approximately 5000 resonance units (RU). The anti-LNA antibodies were captured to the surface by an injection for 30 sec., leading to response levels of approx. 100-200 RU. Different ASO molecules were injected in a 1:3 dilution series up to 1000 nM. Association was monitored for 3 min. and dissociation for 5 min. at a flow rate of 30 μl/min each. Subsequently, the surface was regenerated by injecting 10 mM NaOH (anti-human IgG antibody surface) or 10 mM Glycine pH 1.7 (anti-human IgG F(ab′2) antibody surface) for 60 sec. Bulk refractive index differences were corrected by subtracting blank injections and by subtracting the response obtained from the reference flow cell without captured antibody. Curve fitting was performed using the 1:1 Langmuir binding model within the BIAcore evaluation software.
(In general: Surface plasmon resonance follows binding to a sensor surface in real time, without labels.)

A further data set concerns ASO 297. The data set can be described thus: SPR (BIAcore) binding kinetics and affinity. The note with it: analyte ASO 297; bivalent IgG format; 25° C.; read-out: K. As to the method: as §1, §2, §3
The next data set relates to ASO 420. The data set can be described thus: SPR (BIAcore) binding kinetics and affinity. Particulars: analyte ASO 420; bivalent IgG format; 25° C.; read-out: K. The procedure:
as §1, §2, §3

A further data set concerns ASO 827. The data set can be described thus: SPR (BIAcore) binding kinetics and affinity. Particulars: analyte ASO 827; bivalent IgG format; 25° C.; read-out: K. The procedure: as §1, §2, §3
The test system of data set [1] is fusion 2489 (antibody-ASO 918 conjugate). The data set can be described thus: SPR (BIAcore) binding kinetics and affinity. The note with it: analyte fusion 2489; bivalent IgG format; 25° C.; read-out: K. The procedure: as §1, §2, §3
Data set [2] concerns fusion 2899 (antibody-ASO 918 conjugate). The data set can be described thus: SPR (BIAcore) binding kinetics and affinity. The note with it: analyte fusion 2899; bivalent IgG format; 25° C.; read-out: K. The procedure:
as §1, §2, §3

Data set [3] concerns LNA-modified ASOs and antibody-ASO conjugates. The data set can be described thus: SPR binding. Particulars: summary in words. As to the method:
as §1
Further analyses of the pan anti-LNA antibody according to the invention produced by clone 1.9.21 a trivalent, bispecific format was used. This trivalent, bispecific format comprises an IgG1 Fc-region (with knobs-into-holes-cys1 mutations) to which at one of the N-termini of the Fc-region a germline Fab (DP47; SEQ ID NO: 137 and 138) has been fused and at both of the C-termini of the Fc-region each one anti-LNA Fab (fab 0699) according to the current invention produced by clone 1.9.21 has been fused (fusion 1861). […]
To assess the specificities and affinities of LNA-binding antibodies, surface plasmon resonance was done as described in WO 2020/141117 and WO 2022/175217. […] Association was monitored for 3 min. and dissociation for 5 min. at a flow rate of 30 μl/min each. […]

B1: mAb 5393: anti-LNA antibody produced by clone 1.9.21 in the bivalent standard Y-shaped IgG format (antibody, V domains shown)
VH: QVQLQQSGAELVRPGTSVKVSCKASGYAFTNYLIEWIKQRPGQGLEWIGVINPGSGGTNYNEKFRVKATLTADKSSSTAYMQLSSLTSDDSAVYFCARGGGYYWGQGTLVTVSA
VL: DIVMTQAAPSVPVTPGESVSISCRSSKSLLHSNGNTYLFWFLQRPGQSPQVLIYRMSNLASGVPDRFSGSGSGTAFTLRISRVEAEDVGVYYCMQHLEYPYTFGSGTRLEIK
With B1, the Kon result in the data set on ASO 042 (oos = out of specification) was “oos”. In addition, the Kd in the data set with ASO 042 (read-out: K) is less than 1 nM; in the data set on ASO 297, 26.2 nM; in the data set with ASO 420, 0.0379 nM; with ASO 827 it was 0.0414 nM; in data set [1], 0.116 nM; in data set [2], 0.169 nM. The “binding to the tested analytes (ASOs and antibody-ASO conjugates)” value in data set [3] was “binds to all of the tested ASOs and antibody-ASO conjugates with good affinity”.
